Experimental data reported in PMC4626060 (Molecular Biology of the Cell, 2015).

T1: full-length glutathione S-transferase (GST)-Mps1 (UniProt P33981 1-857)
T1 sequence: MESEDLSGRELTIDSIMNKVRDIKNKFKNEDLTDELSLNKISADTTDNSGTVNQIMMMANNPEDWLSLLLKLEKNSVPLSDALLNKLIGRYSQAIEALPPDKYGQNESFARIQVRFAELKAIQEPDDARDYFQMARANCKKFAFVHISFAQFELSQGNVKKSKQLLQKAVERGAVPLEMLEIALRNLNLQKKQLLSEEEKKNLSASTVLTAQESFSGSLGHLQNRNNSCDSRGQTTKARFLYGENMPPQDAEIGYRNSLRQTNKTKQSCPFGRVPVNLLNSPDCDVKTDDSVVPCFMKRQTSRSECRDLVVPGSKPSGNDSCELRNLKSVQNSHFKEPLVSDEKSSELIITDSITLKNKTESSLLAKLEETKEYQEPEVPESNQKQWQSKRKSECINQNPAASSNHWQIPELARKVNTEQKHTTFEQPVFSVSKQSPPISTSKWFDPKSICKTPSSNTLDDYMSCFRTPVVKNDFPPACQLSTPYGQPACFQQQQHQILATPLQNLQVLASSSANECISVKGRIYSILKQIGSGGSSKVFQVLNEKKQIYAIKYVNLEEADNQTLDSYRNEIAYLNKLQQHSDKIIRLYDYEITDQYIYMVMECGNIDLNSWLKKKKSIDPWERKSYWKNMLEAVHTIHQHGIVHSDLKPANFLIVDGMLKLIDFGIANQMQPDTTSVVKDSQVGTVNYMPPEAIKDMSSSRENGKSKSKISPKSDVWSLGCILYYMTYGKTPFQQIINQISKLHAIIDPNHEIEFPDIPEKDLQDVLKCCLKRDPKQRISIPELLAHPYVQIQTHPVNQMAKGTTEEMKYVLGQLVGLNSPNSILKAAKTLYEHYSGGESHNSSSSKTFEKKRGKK

B1: recombinant His-Cetn3 (natural protein)
chain: MSLALRSELVVDKTKRKKRRELSEEQKQEIKDAFELFDTDKDEAIDYHELKVAMRALGFDVKKADVLKILKDYDREATGKITFEDFNEVVTDWILERDPHEEILKAFKLFDDDDSGKISLRNLRRVARELGENMSDEELRAMIEEFDKDGDGEINQEEFIAIMTGDI
B2: recombinant His-Cetn2 (natural protein)
chain: MASNFKKANMASSSQRKRMSPKPELTEEQKQEIREAFDLFDADGTGTIDVKELKVAMRALGFEPKKEEIKKMISEIDKEGTGKMNFGDFLTVMTQKMSEKDTKEEILKAFKLFDDDETGKISFKNLKRVAKELGENLTDEELQEMIDEADRDGDGEVSEQEFLRIMKKTSLY

Biological target: T1, full-length glutathione S-transferase …
Experiment: pull-down

| Binder | fold binding to GST-Mps1 with 5 mM MgCl2 against without [fold] | fold binding to GST-Mps1 on coincubation with Cetn3 against Cetn2 alone [fold] |
| --- | --- | --- |
| B1 | 2.59 ± 0.91 |  |
| B2 |  | 3.39 ± 1.96 |
